test: soluble on expression in E. coli; label from the status in PepcDB or PDB records

Row | Sequence | soluble on expression in E. coli
1 | MDKMLEKFEGSILGLSIGDALGMPTEWFTKEEIAEKYGLIDNFVDPKNKFNGILKAGQYTDDTDQTIAILNSFDVRGFNNDIFIKELIKWYNNNPVGMGPTSTKAIEKLIEGDTTGCDSRTCGSSMRVGPLGLFYFGEYDKLKEITIKATKLTHNNDEAIAGALSIAFFVAESVNNVKSEKSIKRCAKFIEDVSYDFSEKILLINDLNSADEAYELFDTGLPAIECVPSAIATFLRTDTFKDGMISCVNAGGDTDSMGSMYGAIAGAYYGVLNIPELWIAGLQNKDLLVDLSKKLYKLRFKKLEHHHHHH | soluble
2 | MDKVPQAVRDYLMEAHQLAAQWSLPNDRGDYINSKSIPIKSVAVIGGGTMGRGIAIAFCLSGFETYLVEVNNKAAEFCKNELEITYKREKAFRRLNDSKVEKLRKNLQITTDFQKLNNCDLIVEAVFEDMKLKKELFTKLDKICKPSCIFGTNTSSLDLNEMSSVLRDPTKVVGIHFFNPANLIRMVEVIYGSKTSSKAVATAFEACRSIKKLPVLVGNCPAFVFNRLLGVYLNQSQKLMYEYGYLPHQIDKIITNFGFLMGPLTVADMNGLDVMEKLKKENGWPASDFEKEVWRQKRYGRKTNKGYYKYDPNTHKKENDIEMEQLIRKFSSAASPNIQILNDQDAVNFLLYPMVNEGLLCIEEGIIHHESLIDIMFILGFGWPVATGGPMRFGWLQGIEKVASTIILWNSLEPNDRTYKVAATLQNVDRKNFAAKL | not soluble
3 | MDLHSLCVDSHALRRDGMRFLHTADWQLGMTRHFLAGDAQPRYSAARRDAVAGLKALAADVGAEFVVVAGDVFEHNQLAPQIVGQSLEAMRVIGLPVYLLPGNHDPLDASSVYTSTLFRAERPDNVVVLDRAGVHEVRPGVQIVAAPWRSKAPTTDPVAEVLAGLPTDAAIRLLVAHGGVDALDPDHDKPSLIRLAALDDALTRQAIHYVALGDKHSLTQVGSSGRVWYSGAPEVTNFDDVEPDPGHVLVVDIDESDPRHPVTVDARRIGRWRFVTLHHQVDTSRDIADLDLNLDLMTDKDRTVVRLALTGSLTVTDRAALDTCLDKYARLFAWLGLWERHTDLAVIPVDAEFTDLGIGGFAAAAVDELVATARGGDDESAVDAQAALALLLRLADRGAALEHHHHHH | soluble
4 | MDLTNGGVSPAATSAPLDWTTFRRVFLIDDAWRPLMEPELANPLTAHLLAEYNRRCQTEEVLPPREDVFSWTRYCTPDEVRVVIIGQNPYHHPGQAHGLAFSVRANVPPPPSLRNVLAAVKNCYPEARMSGHGCLEKWARDGVLLLNTTLTVKRGAAASHSRIGWDRFVGGVIRRLAARRPGLVFMLWGTHAQNAIRPDPRVHCVLKFSNPSPLSKVPFGTCQHFLVANRYLETRSISPIDWSV | soluble
5 | MDMNEEYGLTPYETREILFYKTDNGEVRVEILLYQENLWLTQAKMAELFEVQKAAISKHLKNIFTSGELQEEAVVSKMETTAADGKRYNTSYYNLDAIIAVGYRVNSKKATMFRIWANRVLKEFIIKGYVMDDARLREPENLFGKDYFEEQLERIRDIRSSERRFYQKITDIYSQCSADYDVNSPVTKEFFATVQNKLHYAVTHHTAAEIVYGRADSTKPNMGLTTWKNAPQGRIRKSDVSIAKNYLNEEEMINLNEIVTMYLDYAERQARRGNIMYMQDWVNRLDAFLQFNEEDILHDKGKVTAAIAKAFAESEFEKFRVLQDRTYQSDFDRLVANIEENSKQTK | not soluble
6 | MDNHDDKSKSDRFCDINNNMTTQFDRLSINSDASLVITSSRLAMQGADETSDWTPNKYSWFKLVTPNPVETRVVQQKAQMKGLKIHKMVHNFIPSRKQGYLGYYNFDVKSYEESEKARNLFPTDFVDAFCCQHLLGKNEQEFVFHAVNENDLKILCCIATYCKETKLDAPLDPMQHLNNLNLFYEAINNERAFIIMKDFMSDNGMKYLCRLKKDITDIRDRRNNN | not soluble
7 | MDNKIMLRNRYISKIQNKLRDLTDSINFLSEIDQAILNQTAGAGPGAAGPGAAPDRSSTINLQALREKLTTLNTDDGPTRTAIRDKTAAIQTSIRDINLKLEELMKNINTSAGKLADAVSAIPTPTDDLGAAGAAGAAGAAGAAAGAGAGAA | not soluble
8 | MDNSSQSKPSSSSSSHSPSPAAITPTQRTTRDSGLCSTIDIPEIQAQCIDNLNSHYLGKGTYGLVEKTRYRKTRQDDFRPAAIKYSSQLHMATLIREAKVMWDLRNHPNIIKIYGLYKSPRNGQGVVMEYMDCGSMADLLYDRTHINYTIDHVASWMFQLSSAVDFFHSNSQVHRDLKLQNMLLSDRYRTMKLCDFGTFTSMHQSMTSNRGTPITMAPEVFRCEQYNMKSDIYSIGIIMWQIIARNHPYRRDLSVPGLLYNVATANLRPQELECNPILSEFYKKCWNDNADIRPTSSECVEYFTLLKDEYPNGSVPLSDSSTNGPAETPPPHAHRPTMLGTSSGSGIGSNNRTPTASKLLNPQQPGQGHRRNRSETFVVQPDLPYPTVPGEAGASRIPKSQSEAKNFRDRAKSEQRQPHRDARPPPPFEHRRDSNDEEKHAVFMNICSNEETRPIDPDTRDEKSLEIFHQHCDNNKQYADAWVIKKEVMRAKHELIAQWPQHDHTVELLERKYYLEQEIARYRDIQDDNYFSTERM | not soluble
9 | MDNSVMLDYLAVTIKGLAPDDVIEKILILPKDKFVLNEWGINKYQRHYSFSEIKVYFNKDWQSKMGVFIELRGQGCRQYEEYMENNVNNWVTLMKRISECHSNVTRLDIANDIFDDSLSVPLIYSYCKKQLCISTAKTFDYHEKSLLENGEKVGEMVTIGVRGTQQWCVYNKLLEQKLDQELPNTPLSWTRAELRCWQEKANLLAKQIKEGRPLKEIYFEVINGHYRFVSPRDKDSNRWRRKTVKWWNDYLETQEKTVLSVKRTKPTLKRSEKWTEKQVSRTLGKLYVAKAESHGQEKADSYIQHLLELGISKLTETDETDIQQYKQEQLSSAYWGIRKDDL | not soluble
10 | MDNTNTGLKLFVLDTNILMHDPTAIYHFDEHDIYLPMVVLEELDSHKTGTSELARNVRQTNRMLVELMSNATHDQIVSGLPIPSYINSSNKKCSGRLFFQTDEFDQVVPSTLPGHKVDNTILATALGLQKKYYGKRQVIIISKDINLRIKAGILGIHAEDYYNDQVLDDVNLLHRGLHILDNNFWDSHAKDMGSWQESGKTFYKVSGPLVSQWNPNDCLSTEDDQFQALVKKIDGPNAVVQLIRDYTQPKHSVWGITARNREQNFSLNLLLDPDIDFVSLQGSAGTGKTLLTIAAGLTQVMDQNRYSEILMTRVTIPVGEDIGFLPGTEEEKMTPWMGALMDNLEVLHSSQVGGSFGRGATQDLLQNKIKIRSLNFMRGRTFLNRYIIIDEAQNLTSKQIKTLVTRAGPGSKIICLGDIKQIDTPYLTETTSGLTFAVDRFKSWEHSAHMTLTRGERSRLAFYAAEHL | not soluble
11 | MDPLTGVPIRQEVPRLMERTFQENQAETYVLFLINLDRFKLVNDSLGEGYGDQVLQTLVRRLLWQLPNQQWIARVSGDEFIACAAIKGELPKKETLATYISSIIQQPFQVDEVQFTMTASIGAAVYPMDGKSVEMIWNSLERALRHAKARGGNCVSWFCQELKDEWIHPFRLENDLRRAVENQELEHHHHHH | soluble
12 | MDQGPINRPHFFFTTAPMPCPYLEGHLERKMVTDLTGPEAERLHESLSRAGFRRSHTIAYAPVCPGCTACVPVRIRARAFVKNKSFRRIVRANAGVTAEYVPARATVEQFHLFSQYQQARHGESDMALMGFFDYRSMVEDSPISTSIAEFREAGGELVAACLIDHLSDGLSAVYSFFNTTLPQSRGLGTWMILWMVDETVRRDLDHVYLGYWIAESSKMAYKERFQPLEVFGRRGWIAFDERGRPGLEHHHHHH | not soluble
13 | MDQLWANRAASAEAAITERHLKKLWGLPGTQLGVVAWPPARKYTLFGTWHYWWQAHLLDCLVDAQVRDPQPERTTRIERQLRAHRLRNNLSWVNDYYDDMAWLALAIERAGRLAGVEKPTALRKLCDQFVTAWVPEDGGGIPWRKQDQFFNAPANGPAGIFLARYDDRLRRAQQMADWIDETLIDPDTHLVFDGIKAGSLVRAQYTYCQGVVLGLEVELAVRTQDPRHAPRVRRLVAAVDKEMTTDGVIKGAGGGDGGLFNGILARYLALVATTLPGETPEDIAARDTARTIVLKSARSAWDHRQTVDGLPLFSAFWDRNAEIPTAGGKEAEFVEGAVNASSVPERDLSVQLAGWMLMEAAHSVDSVDAEDAAGDQNGAGDGEVGHDENEDEELEHHHHHH | soluble
14 | MDRENILKAVKEARSLAKPRNFTQSLDLIINLKELDLSRPENRLKEQVVLPNGRGKEPKIAVIAKGDLAAQAEEMGLTVIRQDELEELGKNKKMAKKIANEHDFFIAQADMMPLVGKTLGPVLGPRGKMPQPVPANANLTPLVERLKKTVLINTRDKPLFHVLVGNEKMSDEELAENIEAILNTVSRKYEKGLYHVKSAYTKLTMGPPAQIEK | soluble

Reference: the DeepSol protein solubility set
